Test results reported in US20120316071A1 (published 2012).

Key:
[1] = target: T1, rHuman Notch-1/Fc Chimera, CF (R&D Systems Cat#3647-TK) (human, UniProt P46531 19-526); test: ECL Multispot (MSD), 10 nM Fab; blank of this row 204
T1 construct: Bought reagent; Fc part of the bought chimera not given

[2] = target: T2, rHuman ErbB2/Fc Chimera, CF (R&D Systems Cat#1129-ER) (human, UniProt P04626 23-652); test: as above
T2 construct: Bought reagent; also called human epidermal growth factor 2 receptor; Fc part of the bought chimera not given

[3] = target: T3, rHuman IGF-1 sR, (IGF-1 sR), CF (R&D Systems Cat#391-GR) (human, UniProt P08069 31-932); test: as above
T3 construct: Bought soluble receptor; also called insulin-like growth factor-1 soluble receptor

[4] = target: T4, rHuman HGF R/c-MET/Fc Chimera, CF (R&D Systems Cat#358-MT/CF) (human, UniProt P08581 25-932); test: as above
T4 construct: Bought reagent; also called HGF R/Fc; hepatocyte growth factor receptor; Fc part of the bought chimera not given

[5] = target: T5, rHuman CD44/Fc Chimera, CF (R&D Systems Cat#3660-CD) (human, UniProt P16070 21-220); test: as above
T5 construct: Bought reagent; Fc part of the bought chimera not given

[6] = target: T6, rHuman P-Cadherin/Fc Chimera, CF (R&D Systems Cat#861-PC) (human, UniProt P22223 108-654); test: as above
T6 construct: Bought reagent; Fc part of the bought chimera not given

[7] = target: T7, rHuman EGF R/Fc Chimera, CF (R&D Systems Cat#344-ER) (human, UniProt P00533 25-645); test: as above
T7 construct: Bought reagent; also called epidermal growth factor receptor; Fc part of the bought chimera not given

[8] = target: T8, rHuman Erythropoietin R/Fc Chimera, CF (R&D Systems Cat#963-ER) (human, UniProt P19235 25-250); test: as above
T8 construct: Bought reagent; also called EPO R; EPO R/Fc; Fc part of the bought chimera not given
T8 sequence (looked up): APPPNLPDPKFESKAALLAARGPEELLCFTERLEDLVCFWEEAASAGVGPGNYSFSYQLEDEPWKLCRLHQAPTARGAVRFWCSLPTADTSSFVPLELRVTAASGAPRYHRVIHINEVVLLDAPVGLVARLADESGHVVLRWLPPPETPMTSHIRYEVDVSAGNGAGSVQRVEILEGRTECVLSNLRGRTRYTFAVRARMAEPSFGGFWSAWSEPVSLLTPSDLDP

[9] = target: T1, rHuman Notch-1/Fc Chimera, CF (R&D …); test: ECL Multispot (MSD), 10 nM Fab; blank of this row 363
[10] = target: T2, rHuman ErbB2/Fc Chimera, CF (R&D …); test: as above
[11] = target: T3, rHuman IGF-1 sR, (IGF-1 sR), CF (R&D …); test: as above
[12] = target: T4, rHuman HGF R/c-MET/Fc Chimera, CF (R&D …); test: as above
[13] = target: T5, rHuman CD44/Fc Chimera, CF (R&D Systems …); test: as above
[14] = target: T6, rHuman P-Cadherin/Fc Chimera, CF (R&D …); test: as above
[15] = target: T7, rHuman EGF R/Fc Chimera, CF (R&D …); test: as above
[16] = target: T8, rHuman Erythropoietin R/Fc Chimera, CF …; test: as above
[17] = target: T1, rHuman Notch-1/Fc Chimera, CF (R&D …); test: ECL Multispot (MSD), 10 nM Fab; blank of this row 203
[18] = target: T2, rHuman ErbB2/Fc Chimera, CF (R&D …); test: as above
[19] = target: T3, rHuman IGF-1 sR, (IGF-1 sR), CF (R&D …); test: as above
[20] = target: T4, rHuman HGF R/c-MET/Fc Chimera, CF (R&D …); test: as above
[21] = target: T5, rHuman CD44/Fc Chimera, CF (R&D Systems …); test: as above
[22] = target: T6, rHuman P-Cadherin/Fc Chimera, CF (R&D …); test: as above
[23] = target: T7, rHuman EGF R/Fc Chimera, CF (R&D …); test: as above
[24] = target: T8, rHuman Erythropoietin R/Fc Chimera, CF …; test: as above

T4 sequence (P08581 25-932, change not shown): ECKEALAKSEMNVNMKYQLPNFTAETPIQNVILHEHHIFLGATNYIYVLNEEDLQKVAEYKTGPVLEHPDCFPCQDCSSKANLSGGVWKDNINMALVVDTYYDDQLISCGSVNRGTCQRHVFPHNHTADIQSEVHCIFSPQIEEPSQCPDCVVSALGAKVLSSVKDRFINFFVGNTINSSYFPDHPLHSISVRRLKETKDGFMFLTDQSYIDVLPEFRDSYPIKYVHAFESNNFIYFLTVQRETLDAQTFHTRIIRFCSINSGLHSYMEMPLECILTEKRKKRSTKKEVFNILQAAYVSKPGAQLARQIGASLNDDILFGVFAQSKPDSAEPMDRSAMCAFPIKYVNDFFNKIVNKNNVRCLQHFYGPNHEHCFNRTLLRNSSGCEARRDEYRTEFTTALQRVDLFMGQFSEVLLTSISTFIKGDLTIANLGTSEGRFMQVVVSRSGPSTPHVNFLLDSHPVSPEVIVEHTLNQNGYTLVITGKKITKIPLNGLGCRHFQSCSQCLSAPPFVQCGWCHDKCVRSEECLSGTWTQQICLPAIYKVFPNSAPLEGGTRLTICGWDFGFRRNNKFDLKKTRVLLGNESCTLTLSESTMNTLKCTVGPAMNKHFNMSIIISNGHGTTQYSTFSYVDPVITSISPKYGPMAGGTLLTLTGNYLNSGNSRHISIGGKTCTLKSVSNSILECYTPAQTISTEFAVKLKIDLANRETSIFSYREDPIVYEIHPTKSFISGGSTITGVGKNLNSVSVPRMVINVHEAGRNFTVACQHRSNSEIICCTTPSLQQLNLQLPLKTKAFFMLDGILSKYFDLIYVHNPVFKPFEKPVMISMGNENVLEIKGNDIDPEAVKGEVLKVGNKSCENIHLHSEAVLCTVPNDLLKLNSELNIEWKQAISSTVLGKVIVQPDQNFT

B1: Fab VH1-46_IGHD6-6*01_IGHJ1*01 S102A/S103P/S104F (APF) & L6_IGKJ1*01 (Fab, V domains shown)
VH: QVQLVQSGAEVKKPGASVKVSCKASGYTFTSYYMHWVRQAPGQGLEWMGIINPSGGSTSYAQKFQGRVTMTRDTSTSTVYMELSSLRSEDTAVYYCAREEYAPFSAEYFQHWGQGTLVTVSS
VL: not shown
notes: Tested as Fab made in E. coli; also called H:APF & L:wt; APF triple mutant
For B1, which ECL signal [1] is on record?
Its ECL signal is 283.

And the ECL signal [2]?
The ECL signal was 302.

What about the ECL signal [3] of the same binder?
The ECL signal was 213.

What about the ECL signal [4] of the same binder?
Its ECL signal is 200.

And the ECL signal [5]?
The ECL signal was 340.

And the ECL signal [6]?
Its ECL signal is 118.

And the ECL signal [7]?
Its ECL signal is 394.

And the ECL signal [8]?
Its ECL signal is 343.

And the ECL signal [9]?
The ECL signal was 376.

What about the ECL signal [10] of the same binder?
Its ECL signal is 525.

And the ECL signal [11]?
Its ECL signal is 361.

What about the ECL signal [12] of the same binder?
Its ECL signal is 422.

And the ECL signal [13]?
The ECL signal was 345.

What about the ECL signal [14] of the same binder?
Its ECL signal is 305.

What about the ECL signal [15] of the same binder?
The ECL signal was 467.

What about the ECL signal [16] of the same binder?
The ECL signal was 494.

B2: Fab VH1-46_IGHD6-6*01_IGHJ1*01 S102A/S103P/S104F H111S & L6_IGKJ1*01 (Fab, V domains shown)
VH: QVQLVQSGAEVKKPGASVKVSCKASGYTFTSYYMHWVRQAPGQGLEWMGIINPSGGSTSYAQKFQGRVTMTRDTSTSTVYMELSSLRSEDTAVYYCAREEYAPFSAEYFQSWGQGTLVTVSS
VL: not shown
notes: Fab format as for m1; also called APF H111S
B2 was tested. Which ECL signal [17] did it give?
Its ECL signal is 272.

What about the ECL signal [18] of the same binder?
The ECL signal was 314.

And the ECL signal [19]?
Its ECL signal is 136.

What about the ECL signal [20] of the same binder?
The ECL signal was 235.

And the ECL signal [21]?
Its ECL signal is 244.

And the ECL signal [22]?
Its ECL signal is 178.

What about the ECL signal [23] of the same binder?
The ECL signal was 286.

What about the ECL signal [24] of the same binder?
The ECL signal was 277.
